This is an account of results in patent publication US20260284221 (published 2026).

Holding throughout (experiment): BLI pH 7.4
The target of one assay is T1, Human Trop2 (human, UniProt P09758).
T1 chain: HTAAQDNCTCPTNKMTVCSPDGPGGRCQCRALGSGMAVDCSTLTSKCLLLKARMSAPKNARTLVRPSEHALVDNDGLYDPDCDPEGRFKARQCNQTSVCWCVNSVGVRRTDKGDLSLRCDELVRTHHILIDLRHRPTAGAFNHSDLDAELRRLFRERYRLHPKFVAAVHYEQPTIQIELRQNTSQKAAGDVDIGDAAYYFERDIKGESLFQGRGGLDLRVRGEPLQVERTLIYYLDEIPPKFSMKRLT

A further assay concerns the target T2, Rhesus macaque Trop2 (rhesus macaque).
T2 chain: T1 chain with M36V, S67N, I204V

In another assay the target is T3, Mouse Trop2 (mouse, UniProt Q8BGV3).
T3 chain: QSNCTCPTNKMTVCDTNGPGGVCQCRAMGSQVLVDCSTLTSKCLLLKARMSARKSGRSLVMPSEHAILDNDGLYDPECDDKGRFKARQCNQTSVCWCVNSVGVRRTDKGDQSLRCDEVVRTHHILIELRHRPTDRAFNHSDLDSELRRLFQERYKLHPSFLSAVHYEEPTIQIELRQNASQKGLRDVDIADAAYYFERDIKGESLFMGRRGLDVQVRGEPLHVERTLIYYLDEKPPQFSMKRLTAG

The next assay addresses T4, Rat Trop2 (rat, UniProt Q6P9Z6).
T4 chain: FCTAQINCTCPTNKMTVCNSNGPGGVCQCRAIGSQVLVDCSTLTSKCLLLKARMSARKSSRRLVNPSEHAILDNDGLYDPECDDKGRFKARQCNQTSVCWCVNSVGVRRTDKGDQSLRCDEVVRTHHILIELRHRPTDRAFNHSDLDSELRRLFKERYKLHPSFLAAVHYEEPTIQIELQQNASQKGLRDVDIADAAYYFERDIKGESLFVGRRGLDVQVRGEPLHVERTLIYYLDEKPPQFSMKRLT

Residue numbers refer to the chain shown, from its start.

B1: L2-conjugated anti-Trop2 antibody (IB12) (antibody, V domains shown)
VH: EVQLVESGGGLVQPGGSLRLSCAASGFTFNNYAMSWVRQAPGKGLEWVSTISSDGTYTYYADSVKGRFTISRDNSKNTLYLQMNSLRAEDTAVYYCARHPPSYYYAFDYWGQGTTLTVSS
VL: EIVLTQSPGTLSLSPGERATLSCRASESVDSYGNSFIHWYQQKPGQAPRLLIYLASNLESGIPDRFSGSGSGTDFTLTISRLEPEDFAVYYCQQNNEDLWTFGGGTKLEIK
modifications: conjugated with L2 linker; heavy constant SEQ2, light constant SEQ4
What is called Kd is a measure of binding affinity in units of concentration. Lower therefore signals a tighter complex. For the molecule B1, the Kd with Human Trop2 was 22.6 nM; with Rhesus macaque Trop2, less than 0.001 nM. Also, the binding result with Mouse Trop2 and in the assay with Rat Trop2 was “no binding” in each case.
